Assay results published in patent US20220153847A1 (Chugai, published 2022).

Columns and labels:
[1] = target: HLA-DQ2.5/33mer gliadin peptide on IHW9088 cells (human); test: cell-based or functional assay
[2] = target: T1, HLA-DQ2.5/CLIP peptide complex on Ba/F3 cells (human); test: FACS, Ba/F3 cells; IC17=0%, DQN0139bb//IC17=100%;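 further: flow cytometry binding of anti-HLA-DQ antibodies at 5 µg/mL, incubated 30 min at room temperature with Ba/F3 lines presenting HLA-DQ/peptide complexes; antibody tested at 5 microgram/mL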
T1 construct: whole, on cells; also called Ba/F3-HLA-DQ2.5/CLIP

[3] = target: T2, HLA-DQ2.5/33mer gliadin peptide complex on Ba/F3 cells (human); test: FACS, Ba/F3 cells; IC17=0%, DQN0139bb//IC17=100%;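 further: flow cytometry binding of anti-HLA-DQ antibodies at 5 µg/mL, incubated 30 min at room temperature with Ba/F3 lines presenting HLA-DQ/peptide complexes; antibody tested at 5 microgram/mL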
T2 construct: whole, on cells; also called Ba/F3-HLA-DQ2.5/33mer gliadin

[4] = target: T3, HLA-DQ2.5/omega 1 gliadin peptide complex on Ba/F3 cells (human); test: FACS, Ba/F3 cells; IC17=0%, DQN0139bb//IC17=100%;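 further: flow cytometry binding of anti-HLA-DQ antibodies at 5 µg/mL, incubated 30 min at room temperature with Ba/F3 lines presenting HLA-DQ/peptide complexes; antibody tested at 5 microgram/mL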
T3 construct: whole, on cells; also called Ba/F3-HLA-DQ2.5/omega 1 gliadin; HLA-DQ2.5/w1 gliadin

[5] = target: T4, HLA-DQ2.5/hordein 1 peptide complex on Ba/F3 cells (human); test: FACS, Ba/F3 cells; IC17=0%, DQN0139bb//IC17=100%;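 further: flow cytometry binding of anti-HLA-DQ antibodies at 5 µg/mL, incubated 30 min at room temperature with Ba/F3 lines presenting HLA-DQ/peptide complexes; antibody tested at 5 microgram/mL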
T4 construct: whole, on cells; also called Ba/F3-HLA-DQ2.5/hordein 1

[6] = target: T5, HLA-DQ2.5/14mer 1 peptide complex on Ba/F3 cells (human); test: FACS, Ba/F3 cells; IC17=0%, DQN0139bb//IC17=100%
T5 construct: whole, on cells; also called Ba/F3-HLA-DQ2.5/14mer 1

[7] = target: T6, HLA-DQ2.5/secalin 1 peptide complex on Ba/F3 cells (human); test: FACS, Ba/F3 cells; IC17=0%, DQN0139bb//IC17=100%
T6 construct: whole, on cells; also called Ba/F3-HLA-DQ2.5/secalin 1

[8] = target: T7, HLA-DQ2.5/alpha 3 gliadin peptide complex on Ba/F3 cells (human); test: FACS, Ba/F3 cells; IC17=0%, DQN0139bb//IC17=100%
T7 construct: whole, on cells; also called Ba/F3-HLA-DQ2.5/alpha 3 gliadin; HLA-DQ2.5/a3 gliadin

[9] = target: T8, HLA-DQ2.5/alpha 2 gliadin peptide complex on Ba/F3 cells (human); test: FACS, Ba/F3 cells; IC17=0%, DQN0139bb//IC17=100%
T8 construct: whole, on cells; also called Ba/F3-HLA-DQ2.5/alpha 2 gliadin; HLA-DQ2.5/a2 gliadin

[10] = target: T9, HLA-DQ2.5/gamma 1 gliadin peptide complex on Ba/F3 cells (human); test: FACS, Ba/F3 cells; IC17=0%, DQN0139bb//IC17=100%
T9 construct: whole, on cells; also called Ba/F3-HLA-DQ2.5/gamma 1 gliadin; HLA-DQ2.5/g1 gliadin

HLA-DQ7.5 on Ba/F3 cells = target: T10, HLA-DQ7.5 on Ba/F3 cells (human, UniProt P01909 24-216; P01920 33-230, limits assumed); test: FACS, Ba/F3 cells; IC17=0%, DQN0139bb//IC17=100%
T10 construct: whole, on cells; also called Ba/F3-HLA-DQ7.5

[11] = target: T11, HLA-DQ2.5/secalin 2 peptide complex on Ba/F3 cells (human); test: FACS, Ba/F3 cells; IC17=0%, DQN0139bb//IC17=100%
T11 construct: whole, on cells; also called Ba/F3-HLA-DQ2.5/secalin 2

[12] = target: T12, HLA-DQ2.5/omega 2 gliadin peptide complex on Ba/F3 cells (human); test: FACS, Ba/F3 cells; IC17=0%, DQN0139bb//IC17=100%
T12 construct: whole, on cells; also called Ba/F3-HLA-DQ2.5/omega 2 gliadin; HLA-DQ2.5/w2 gliadin

[13] = target: T13, HLA-DQ2.5/gamma 2 gliadin peptide complex on Ba/F3 cells (human); test: FACS, Ba/F3 cells; IC17=0%, DQN0139bb//IC17=100%
T13 construct: whole, on cells; also called Ba/F3-HLA-DQ2.5/gamma 2 gliadin; HLA-DQ2.5/g2 gliadin

[14] = target: T14, HLA-DQ2.5/BC hordein peptide complex on Ba/F3 cells (human); test: FACS, Ba/F3 cells; IC17=0%, DQN0139bb//IC17=100%
T14 construct: whole, on cells; also called Ba/F3-HLA-DQ2.5/BC hordein

[15] = target: T15, HLA-DQ2.5/avenin 2 peptide complex on Ba/F3 cells (human); test: FACS, Ba/F3 cells; IC17=0%, DQN0139bb//IC17=100%
T15 construct: whole, on cells; also called Ba/F3-HLA-DQ2.5/avenin 2

[16] = target: T16, HLA-DQ2.5/alpha 1 gliadin peptide complex on Ba/F3 cells (human); test: FACS, Ba/F3 cells; IC17=0%, DQN0139bb//IC17=100%
T16 construct: whole, on cells; also called Ba/F3-HLA-DQ2.5/alpha 1 gliadin; HLA-DQ2.5/a1 gliadin

[17] = target: T17, HLA-DQ2.5/26mer gliadin peptide complex on Ba/F3 cells (human); test: FACS, Ba/F3 cells; IC17=0%, DQN0139bb//IC17=100%
T17 construct: whole, on cells; also called Ba/F3-HLA-DQ2.5/26mer gliadin

[18] = target: T18, HLA-DQ2.5/avenin 3 peptide complex on Ba/F3 cells (human); test: FACS, Ba/F3 cells; IC17=0%, DQN0139bb//IC17=100%
T18 construct: whole, on cells; also called Ba/F3-HLA-DQ2.5/avenin 3

[19] = target: T19, HLA-DQ2.5/Thyroperoxidase peptide complex on Ba/F3 cells (human); test: FACS, Ba/F3 cells; IC17=0%, DQN0139bb//IC17=100%
T19 construct: whole, on cells; also called Ba/F3-HLA-DQ2.5/TPO; HLA-DQ2.5/TPO

[20] = target: T20, HLA-DQ2.5/avenin 1 peptide complex on Ba/F3 cells (human); test: FACS, Ba/F3 cells; IC17=0%, DQN0139bb//IC17=100%
T20 construct: whole, on cells; also called Ba/F3-HLA-DQ2.5/avenin 1

HLA-DQ8 on Ba/F3 cells = target: T21, HLA-DQ8 on Ba/F3 cells (human, UniProt P01909 24-216; P01920 33-230, limits assumed); test: FACS, Ba/F3 cells; IC17=0%, DQN0139bb//IC17=100%
T21 construct: whole, on cells; also called Ba/F3-HLA-DQ8
T21 MHC II alpha: not shown
T21 MHC II beta: not shown

[21] = target: T22, HLA-DQ2.5/alpha 1b gliadin peptide complex on Ba/F3 cells (human); test: FACS, Ba/F3 cells; IC17=0%, DQN0139bb//IC17=100%
T22 construct: whole, on cells; also called Ba/F3-HLA-DQ2.5/alpha 1b gliadin; HLA-DQ2.5/a1b gliadin

[22] = target: T23, HLA-DQ2.5/hordein 2 peptide complex on Ba/F3 cells (human); test: FACS, Ba/F3 cells; IC17=0%, DQN0139bb//IC17=100%
T23 construct: whole, on cells; also called Ba/F3-HLA-DQ2.5/hordein 2

[23] = target: T24, HLA-DQ2.5 on HLA-DQ2.5-positive PBMC B cells (human, UniProt P01909 24-254; P01920 33-261); test: FACS, PBMC B cells; IC17=0%, DQN0139bb//IC17=100%
T24 construct: whole, on cells; also called HLA-DQ2.5+ PBMC B cell
T24 MHC II alpha: not shown
T24 MHC II beta: not shown

T1 sequence (P04233 96-124, chain 2 of 2, other chains not shown): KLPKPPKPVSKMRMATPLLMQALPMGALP
T10 sequence (P01920 33-230 limits assumed, chain 2 of 4, other chains not shown): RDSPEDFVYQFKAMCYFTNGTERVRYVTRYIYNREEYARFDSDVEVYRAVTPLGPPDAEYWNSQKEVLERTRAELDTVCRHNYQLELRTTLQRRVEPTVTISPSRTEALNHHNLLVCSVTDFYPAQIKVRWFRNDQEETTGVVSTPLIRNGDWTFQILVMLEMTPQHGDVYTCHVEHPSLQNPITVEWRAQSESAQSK

B1: DQN0344xx//IC17 (bispecific antibody, human IgG1, kappa)
heavy 1: QSLEESGGGLVKPGGTLTLTCTASGFSFSSSYWMCWVRQAPGKGLEWVACVYGGSDTTYYASWTKGRFTISKGSSTTVALQVTSLTAADTATYFCARDPLNYYYYGELNLWGPGTLVTVSSASTKGPSVFPLAPSSKSTSGGTAALGCLVKDYFPEPVTVSWNSGALTSGVHTFPAVLQSSGLYSLSSVVTVPSSSLGTQTYICNVNHKPSNTKVDKRVEPKSCDKTHTCPPCPAPELRRGPSVFLFPPKPKDTLMISRTPEVTCVVVDVSHEDPEVKFNWYVDGVEVHNAKTKPREEQYNSTYRVVSVLTVLHQDWLNGKEYKCKVSNKALPAPIEKTISKAKGQPREPQVYTLPPSREEMTKNQVSLTCLVKGFYPSDIAVEWESNGQPENNYKTTPPYLDSDGSFFLYSKLTVDKSRWQQGNVFSCSVMHEALHNHYTQESLSLSP
light 1: AVVLTQTASPVSAAVGGTVTIRCQATENIYSGLAWYQQKPGQPPKVLIYYVSTLASGVPSRFKGSGSGTEYTLTISGVQCDDAATYYCQTYHDISNVTFGGGTKVEIKRTVAAPSVFIFPPSDEQLKSGTASVVCLLNNFYPREAKVQWKVDNALQSGNSQESVTEQDSKDCTYSLSSTLTLSKADYEKHKVYACEVTHQGLSSPVTKSFNRGEC
heavy 2: QVQLQQSGPQLVRPGASVKISCKASGYSFTSYWMHWVNQRPGQGLEWIGMIDPSYSETRLNQKFKDKATLTVDKSSSTAYMQLSSPTSEDSAVYYCALYGNYFDYWGQGTTLTVSSASTKGPSVFPLAPSSKSTSGGTAALGCLVKDYFPEPVTVSWNSGALTSGVHTFPAVLQSSGLYSLSSVVTVPSSSLGTQTYICNVNHKPSNTKVDKRVEPKSCDKTHTCPPCPAPELRRGPSVFLFPPKPKDTLMISRTPEVTCVVVDVSHEDPEVKFNWYVDGVEVHNAKTKPREEQYNSTYRVVSVLTVLHQDWLNGKEYKCKVSNKALPAPIEKTISKAKGQPREPQVYTLPPSRKEMTKNQVSLTCLVKGFYPSDIAVEWESNGQPENNYKTTPPYLDSDGSFFLYSKLTVDKSRWQQGNVFSCSVMHEALHNHYTQKSLSLSP
light 2: DIQMTQSSSSFSVSLGDRVTITCKASEDIYNRLAWYQQKPGNAPRLLISGATSLETGVPSRFSGSGSGKDYTLSITSLQTEDVATYYCQQYWSTPYTFGGGTKLEVKRTVAAPSVFIFPPSDEQLKSGTASVVCLLNNFYPREAKVQWKVDNALQSGNSQESVTEQDSKDSTYSLSSTLTLSKADYEKHKVYACEVTHQGLSSPVTKSFNRGEC
[1]
  IC50 (read off the curve): ~0.2 microgram/mL
[2]
  % MFI: 0%
[3]
  % MFI: 99.1%
[4]
  % MFI: 37.5%
[5]
  % MFI: 11.9%
[6]
  % MFI: 0%
[7]
  % MFI: 31.6%
[8]
  % MFI: 14.6%
[9]
  % MFI: 90.4%
[10]
  % MFI: 0.2%
HLA-DQ7.5 on Ba/F3 cells
  % MFI: 0%
[11]
  % MFI: 26.5%
[12]
  % MFI: 0.2%
[13]
  % MFI: 0.2%
[14]
  % MFI: 0%
[15]
  % MFI: 16.8%
[16]
  % MFI: 60.1%
[17]
  % MFI: 0.2%
[18]
  % MFI: 17.8%
[19]
  % MFI: 0%
[20]
  % MFI: 20.7%
HLA-DQ8 on Ba/F3 cells
  % MFI: 0%
[21]
  % MFI: 72.2%
[22]
  % MFI: 0%
[23]
  % MFI: 0%
